Experimental data as given in the supplement of paper PMC10567573.
± gives the standard deviation.

Experiment: protein stability index of a GFP-peptide fusion (GPS, HEK-293T) (PSI 1-6); higher = more stable
Details: c terminus: a fixed tail appended
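Also: 24-mer peptide tiles fused after GFP, lentivirally expressed, FACS-sorted into six equal bins by GFP/DsRed ratio, decoded by Illumina sequencing, PSI is the read-weighted mean bin number.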

Sequence | protein stability index (treatment: DMSO) | protein stability index (treatment: MLN4924 1 uM, 8 h)
RMLTDKEREMAEIRDQMQQQLNDY [LMNB1] | 4.93 ± 0.3 | 5.08 ± 0.19
RMSEDKPQDYKKRLSVELTSSLFR [CTNNB1] | 3.4 ± 0.1 | 3.42 ± 0.25
RNDKIKHVQNQVDEVIDVMQENIT [VAMP4] | 4.51 ± 0.33 | 4.4 ± 0.98
RNLQDLARIYIRRTLRNFINDEMQ [PCMTD1] | 2.07 ± 0.18 | 2.49 ± 0.69
RNTKRDVTLEASRENSKPRAILKP [PPP2R2B] | 4.44 ± 0.47 | 4.79 ± 0.056
RPCRKFLLTGQCDFGSNCRFSHMS [ZMAT5] | 4.2 ± 0.74 | 4.28 ± 0.58
RPVAPRRPRDAVGQRGAQGAGRRR [SMAD6] | 5.27 ± 0.23 | 5.43 ± 0.14
RQERVSLYPFQIHSIALSTFASLI [CDS1] | 3.04 ± 0.61 | 2.92 ± 0.49
RQLTKPRPVILDPADPTGNLGGGD [OAS1] | 4.65 ± 0.23 | 4.48 ± 0.31
RQLVEADINGLRRILDELTLCKAD [KRT36] | 3.2 ± 0.24 | 3.32 ± 0.26
RQRFRHLRYQETPGPREALSQLRV [ZNF232] | 3.13 ± 0.27 | 3.39 ± 0.28
RRASICCTQLGSLSALKHAVLGLY [SCARA5] | 2.44 ± 0.38 | 2.07 ± 0.28
RRFLLCLYLVGFLDLFGVSMVVPL [MFSD9] | 2.91 ± 0.57 | 3.4 ± 0.17
RRHCQACRLKRCVDIGMMKEFILT [VDR] | 2.77 ± 0.72 | 2.15 ± 0.28
RRHPQGAWKELDRNYLNYGEEGAP [CHGB] | 4.05 ± 0.28 | 4.1 ± 0.34
RRILDELTLCRSDLEAQMESLKEE [KRT33B] | 4.56 ± 0.14 | 4.66 ± 0.11
RRLGLSTLGELKQNLSRSWHDVQV [TPD52L2] | 2.9 ± 0.24 | 2.96 ± 0.24
RSKIYLRFLDYEMQNSNECKRNFV [NETO1] | 2.1 ± 0.2 | 2.28 ± 0.091
RSRLRPRDDLDRLGVFLDYEAGVL [TRIM14] | 2.47 ± 0.4 | 2.59 ± 0.48
RTTKPMAQRSAHCSRPSGSSSSSG [CSNK1G1] | 4.39 ± 0.18 | 4.43 ± 0.2
RVIMIVTDGRPQDSVAEVAAKARD [MATN2] | 3.165 ± 0.024 | 2.76 ± 0.6
RVSDVQKVLQGGEQEIQFEDFTNT [PKD2L1] | 4.8 ± 0.6 | 4.85 ± 0.36
RYGCGHRGCGDGCCCPSCYRRYRF [KRTAP19-2] | 3.29 ± 0.27 | 3.62 ± 0.54

Sequence | protein stability index (treatment: DMSO) | protein stability index (treatment: MLN4924 1 uM, 8 h)
RYQKYGYIGTHEYPHFSHRPSTLQ [OAS1] | 2.18 ± 0.14 | 2.45 ± 0.15
SAAGHLDVVRSLLRRGASVNRTTR [FEM1A] | 3.5 ± 0.33 | 3.75 ± 0.33
SALTLACYKGHLEMVRFLLEAGAD [ANKRD17] | 3.08 ± 0.31 | 2.69 ± 0.24
SAVLFYVNMYVSIVFFGLISFDRY [P2RY14] | 3.04 ± 0.35 | 3.22 ± 0.36
SDDNAKLPCFNGRVVSWLVSAEGS [DVL3] | 3.07 ± 0.19 | 3.06 ± 0.26
SDNSGQVSPPESPTVTTSWQSESL [BCL2L13] | 5.13 ± 0.2 | 5.02 ± 0.23
SDNSWVLAGSESLPVETLGPASRM [PBXIP1] | 3.83 ± 0.15 | 4.02 ± 0.5
SDVNDNAPRFNQQLYTAYILENRP [PCDHGC5] | 2.87 ± 0.26 | 3.1 ± 0.31
SEADSEAGELRKPTQEEWRQVVDI [PPEF2] | 5.45 ± 0.15 | 5.46 ± 0.34
SEEEKELYLNLALHLASDFFLKHP [PDS5B] | 2.19 ± 0.36 | 2.18 ± 0.36
SEGTNLNAPNSLGVSALCAICGDR [HNF4A] | 3.88 ± 0.28 | 4.13 ± 0.26
SEIKNLERYMCSRFFIDFPHIEEQ [TENT5D] | 2.42 ± 0.15 | 2.22 ± 0.35
SELERLIVPNSNGVITTTPTPPGQ [JUNB] | 4.65 ± 0.16 | 4.75 ± 0.097
SENCPKVISCEFAHNSNWYITFQS [LARP4] | 2.21 ± 0.23 | 2.08 ± 0.27
SFCLEDTECEGDIQKNYECANFGD [LOXL2] | 5.14 ± 0.14 | 5.33 ± 0.2
SFGPQPISRLEQCGINANDVKKLE [RAD51] | 4.27 ± 0.18 | 4.37 ± 0.14
SFGWSDRAKVKTDDIARIYQPKRY [FAM98B] | 2.9 ± 0.38 | 2.99 ± 0.54
SGGITHDTFQKELMCFDPDTDKWI [KLHL13] | 3.94 ± 0.16 | 4.17 ± 0.25
SHLSNGLDPVAETAIRQLTEPSGR [C2CD2L] | 4.34 ± 0.31 | 4.58 ± 0.3
SHRPNMELCRDAAQFRLLSEVEEL [TEKT4] | 3.82 ± 0.3 | 3.72 ± 0.05
SIDFNKDGHIDINEFLEAFRLVEK [PPEF2] | 2.88 ± 0.17 | 3.32 ± 0.4
SIEYDSEPFGKERDAAIKKLATEA [CRY1] | 5.18 ± 0.14 | 4.87 ± 0.7
SKLCTSYSHSSTRDGRRDRYSSDT [GOSR1] | 4.32 ± 0.25 | 4.18 ± 0.16

Sequence | protein stability index (treatment: DMSO) | protein stability index (treatment: MLN4924 1 uM, 8 h)
SKPSIQPKPLLLPAAPKTQTISSI [ATF6] | 3.88 ± 0.32 | 3.82 ± 0.31
SLCKALAQKLTIRLSSRYRYGQLI [TRIP13] | 3.01 ± 0.47 | 3.16 ± 0.66
SLEMDSDEDDSEELEEDDGHGAEQ [EHMT1] | 5.45 ± 0.27 | 5.62 ± 0.38
SLFAFKSFRENWQRAWVRALNEQA [C2CD2L] | 2.15 ± 0.08 | 2.1 ± 0.23
SLGALDLLGPATGCLLDDGLEGLF [SERTAD1] | 2.6 ± 0.24 | 2.57 ± 0.32
SLGKARTAQVQKDARIGEAEAKRD [FLOT1] | 5.31 ± 0.21 | 5.12 ± 0.36
SLLQKVSPVAHKHLSRQKIDPLLY [TBC1D10A] | 2.07 ± 0.19 | 2.24 ± 0.2
SLQPQQQQQRQRPPRPPPRGTPPR [N4BP2L1] | 3.81 ± 0.17 | 4.16 ± 0.2
SNDNEERLQVVKLLAKMFGAKDSE [PDS5B] | 3.17 ± 0.3 | 3.12 ± 0.4
SNKYGFGYQLSDHTVGVLFNNGAH [PLK2] | 2.61 ± 0.41 | 2.58 ± 0.5
SNSCPAELPNIKREISETEAKALL [TFE3] | 5.1 ± 0.098 | 5.18 ± 0.12
SNVRWDHESVCKYYLCGFCPAELF [LUC7L3] | 2.25 ± 0.37 | 2.29 ± 0.34
SPDKDSIMNIEPAILVMHHSMKPH [INTS3] | 3.32 ± 0.3 | 3.5 ± 0.2
SPDSSMLCSVGASKAVFLWNMDKY [WSB1] | 2.35 ± 0.42 | 2.35 ± 0.26
SPEWDTVTPEAKDLINKMLTINPA [CAMK2D] | 4.24 ± 0.42 | 4.54 ± 0.12
SPKELKRRNSSSSMSSRLSIYDNV [DLC1] | 3.92 ± 0.32 | 3.94 ± 0.39
SPPPAPTSSTFGLQDGNLRAPHKE [CHCHD6] | 5.11 ± 0.5 | 5.32 ± 0.14
SQSSASQPRLSYAEMAEDYPRYPD [CLCN6] | 4.83 ± 0.14 | 4.86 ± 0.13
SRAALVCRKWNQMMYSAELWRYRT [FBXO39] | 2.45 ± 0.56 | 2.15 ± 0.25
SRCRKLVEYFQQSAVAMYMLYEKQ [ZBED1] | 2.44 ± 0.65 | 2.13 ± 0.22
SRFISANLPCNKFKNRLVNIMPYE [PTPRD] | 2.13 ± 0.42 | 1.98 ± 0.13
SRLTPGGKAAQAGVAVGDWVLSID [PDLIM7] | 2.63 ± 0.29 | 3.02 ± 0.61
SSESSSDSDNSGGGGGGGGGGGGG [ANKRD17] | 5.59 ± 0.27 | 5.7 ± 0.12

Sequence | protein stability index (treatment: DMSO) | protein stability index (treatment: MLN4924 1 uM, 8 h)
SSHEPCSATCTTGVMSAYAMCVRY [ADAMTSL2] | 2.24 ± 0.3 | 2.32 ± 0.19
SSHKQGHTSSEYDMLREMFSDSRS [TAF7L] | 4.11 ± 0.21 | 4.13 ± 0.26
SSKFYDLFLMDLSEGELGGPSEPG [RHOBTB2] | 3.19 ± 0.2 | 3.25 ± 0.34
SSQKKDTSSSTVVSTQRSQDHFHV [TIA1] | 4.66 ± 0.21 | 4.64 ± 0.25
SSSCAVHDLIFWRDVKKTGFVFGT [RTN3] | 2.71 ± 0.52 | 2.58 ± 0.52
SSSSSSSSCYPLIPSTPEEVSADD [MAGEA10] | 5.46 ± 0.33 | 5.5 ± 0.14
SSTSYRRTFGPPPSLSPGAFSYSS [PRPH] | 3 ± 0.28 | 3.21 ± 0.3
STAHASAQSLAGGSRRTKEEELQC [TPD52L1] | 5.16 ± 0.15 | 5.12 ± 0.23
STMTSSVQIYNLSQNIQEDDLQQL [ATL3] | 4.45 ± 0.13 | 4.57 ± 0.31
STSSSFPSSFPSSSSSSSSSCYPL [MAGEA10] | 3.73 ± 0.11 | 3.82 ± 0.32
STSSSTQGDPAFPEMNGNGAVAPM [NOL4L] | 4.93 ± 0.34 | 5.05 ± 0.054
SVAEGYYSHRETVNGSWYIQDLCE [CASP6] | 3.23 ± 0.22 | 3.11 ± 0.35
SVDDIESETGSTGALETRSLKDHK [C2CD2L] | 5.52 ± 0.3 | 5.43 ± 0.27
SVIEPVQESSFRSRKIAVEDENDL [MIA2] | 5.05 ± 0.49 | 5.21 ± 0.49
SVRGYMMSKQRERQLRRRALHPER [RETREG3] | 3.43 ± 0.047 | 3.73 ± 0.31
SWSAGLHNRYTENSLRGVILDIHF [FUT8] | 2.88 ± 0.67 | 2.86 ± 0.73
SYQDWQQNLYFNCSSPGVQACSLP [TSPAN10] | 2.32 ± 0.28 | 2.62 ± 0.2
TCEDDEDEELGGSSRVPVGGGPEA [ZBTB22] | 5.49 ± 0.14 | 5.38 ± 0.61
TCGVCALELGSTEVLLDHLKAHAE [PLAGL1] | 2.78 ± 0.46 | 2.78 ± 0.42
TCLMMDMKACQEDDVRLLCHLTPS [INTS3] | 2.69 ± 0.17 | 2.73 ± 0.33
